Test [1] concerns the target T1, human IL-17RC (IL-17RCx1), full length on transfected cells (human, UniProt Q8NAC3 21-791).
T1 sequence: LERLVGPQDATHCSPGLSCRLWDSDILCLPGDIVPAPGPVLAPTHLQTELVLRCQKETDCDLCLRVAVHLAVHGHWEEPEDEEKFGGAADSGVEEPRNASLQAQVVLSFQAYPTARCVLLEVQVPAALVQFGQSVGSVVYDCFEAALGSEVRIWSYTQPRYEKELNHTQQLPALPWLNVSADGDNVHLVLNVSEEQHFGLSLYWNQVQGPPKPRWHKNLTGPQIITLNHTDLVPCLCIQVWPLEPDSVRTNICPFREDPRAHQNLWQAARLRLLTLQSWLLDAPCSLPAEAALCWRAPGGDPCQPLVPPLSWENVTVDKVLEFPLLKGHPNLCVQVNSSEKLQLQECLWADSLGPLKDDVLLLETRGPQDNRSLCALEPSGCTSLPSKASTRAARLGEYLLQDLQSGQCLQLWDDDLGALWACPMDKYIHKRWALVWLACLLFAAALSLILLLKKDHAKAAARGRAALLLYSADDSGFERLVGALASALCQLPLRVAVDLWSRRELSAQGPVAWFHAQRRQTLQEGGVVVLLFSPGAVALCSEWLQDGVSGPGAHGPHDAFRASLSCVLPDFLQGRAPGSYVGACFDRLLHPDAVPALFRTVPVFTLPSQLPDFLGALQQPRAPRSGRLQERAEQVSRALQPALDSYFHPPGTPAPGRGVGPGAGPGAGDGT
The test is described as follows: cell-based or functional assay.

Test [2] has as its target T2, mouse IL-17RCx1, on transfected cells (mouse, UniProt Q8K4C2 22-698).
T2 construct: also called murine IL-17RCx1; IL-17RCx1 (mouse)
T2 sequence: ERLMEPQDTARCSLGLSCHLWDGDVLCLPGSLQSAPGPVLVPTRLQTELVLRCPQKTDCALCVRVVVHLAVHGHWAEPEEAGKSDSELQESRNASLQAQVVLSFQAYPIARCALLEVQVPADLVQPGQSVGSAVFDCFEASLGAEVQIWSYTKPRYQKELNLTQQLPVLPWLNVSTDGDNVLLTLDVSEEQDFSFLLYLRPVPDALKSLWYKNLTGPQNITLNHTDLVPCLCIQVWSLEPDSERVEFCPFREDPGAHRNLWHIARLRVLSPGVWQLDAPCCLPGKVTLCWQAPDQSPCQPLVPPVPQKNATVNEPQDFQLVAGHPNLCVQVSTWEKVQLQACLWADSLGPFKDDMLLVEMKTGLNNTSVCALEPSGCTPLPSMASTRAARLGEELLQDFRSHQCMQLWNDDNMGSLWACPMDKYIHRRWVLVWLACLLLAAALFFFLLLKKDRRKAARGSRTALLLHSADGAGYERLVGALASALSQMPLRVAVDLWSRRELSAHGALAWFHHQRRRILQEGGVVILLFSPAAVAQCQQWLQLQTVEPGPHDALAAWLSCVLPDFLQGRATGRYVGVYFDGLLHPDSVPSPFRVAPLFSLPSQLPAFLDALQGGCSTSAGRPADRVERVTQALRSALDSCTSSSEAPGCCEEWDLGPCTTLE
Description: FACS, biotinylated cytokine on transfected cells; (-) = no significant change in fluorescence. A general note: Flow cytometry measures light scatter and fluorescence of single cells or particles in a stream.

Test [3] deals with T3, human IL-17RCx4, on transfected 293T cells (human, UniProt Q8NAC3 21-791).
T3 construct: Splice variant that includes exons 7, 8 and 12
T3 sequence: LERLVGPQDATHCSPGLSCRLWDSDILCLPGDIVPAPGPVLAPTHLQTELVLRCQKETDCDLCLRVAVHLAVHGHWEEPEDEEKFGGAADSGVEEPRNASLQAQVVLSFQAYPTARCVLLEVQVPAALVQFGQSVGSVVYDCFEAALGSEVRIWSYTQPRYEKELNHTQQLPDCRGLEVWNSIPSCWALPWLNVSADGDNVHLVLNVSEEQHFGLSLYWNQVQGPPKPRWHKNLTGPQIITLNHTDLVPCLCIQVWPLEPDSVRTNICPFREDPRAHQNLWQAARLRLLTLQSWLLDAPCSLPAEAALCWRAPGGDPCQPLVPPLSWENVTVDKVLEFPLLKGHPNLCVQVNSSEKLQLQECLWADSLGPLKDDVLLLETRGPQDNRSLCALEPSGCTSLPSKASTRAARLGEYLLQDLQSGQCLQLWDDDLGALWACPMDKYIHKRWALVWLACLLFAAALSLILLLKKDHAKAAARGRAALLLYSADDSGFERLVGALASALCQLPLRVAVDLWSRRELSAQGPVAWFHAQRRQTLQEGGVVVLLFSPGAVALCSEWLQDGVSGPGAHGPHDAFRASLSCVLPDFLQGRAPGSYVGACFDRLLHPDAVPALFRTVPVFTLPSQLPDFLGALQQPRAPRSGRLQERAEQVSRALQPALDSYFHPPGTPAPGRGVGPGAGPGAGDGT
The test is described as follows: FACS, biotinylated cytokine on transiently transfected 293T cells; (-) = no significant change in fluorescence. From the text: (§1) Those chosen for this analysis also differed in their inclusion or exclusion of exon 7 and exon 12. These variants were designated human IL-17RCx1, IL-17RCx4, IL-17RCx2, and IL-17RCx7 and these are also illustrated in Table 6 below.

The target of test [4] is T1, human IL-17RC (IL-17RCx1), full length …. The description is as above.
Description: as §1

Test [5] addresses T4, human IL-17 receptor (IL-17R), on transfected cells (human, UniProt Q96F46 33-320).
T4 sequence: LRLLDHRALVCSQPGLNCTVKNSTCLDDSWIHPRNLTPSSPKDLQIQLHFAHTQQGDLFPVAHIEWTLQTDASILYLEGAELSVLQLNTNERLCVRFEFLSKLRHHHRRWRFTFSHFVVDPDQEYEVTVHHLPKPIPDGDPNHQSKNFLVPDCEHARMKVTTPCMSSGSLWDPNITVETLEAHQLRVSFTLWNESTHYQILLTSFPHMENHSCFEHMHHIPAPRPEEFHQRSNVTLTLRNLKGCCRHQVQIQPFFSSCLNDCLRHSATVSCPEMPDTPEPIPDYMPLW
Description: cell-based or functional assay.

Test [6] deals with T1, human IL-17RC (IL-17RCx1), full length …. The test is described as follows: radioligand competition, 100x molar cold competitor, BHK hIL-17RC cells. As to the method: (§2) Cold competitors were added in 100 fold molar excess. […] Wells were incubated on ice for 1-hour followed by two washes with PBS (Invitrogen 20012-027) and one wash with a high salt solution (1.5M NaCL, 50 mM HEPES pH 7.4). Wells were extracted with 500 ul of 0.8M NaOH for 30 min. at room temperature and counts per minute were measured in a gamma counter (Packard Cobra II A5005).

Test [7] deals with T2, mouse IL-17RCx1, on transfected cells. The test is described as follows: FACS, biotinylated cytokine on transfected cells; (+) = significant increase in fluorescence.
The target in test [8] is T1, human IL-17RC (IL-17RCx1), full length …. The test is described as follows: saturation radioligand binding on BHK hIL-17RC cells, experiment 1; high affinity site of two-site fit. On the procedure:
as §2
(§3) Transfected BHK cells were plated into 24-well dishes as in one. […] Separately, 100 fold molar excess of cold ligand was added at each dilution point. Cells were washed, extracted and counted as in one. Specific counts per minute were plotted against concentration of radiolabeled ligand added by subtracting the 100 fold excess counts from the uncompleted counts at each dilution point. These normalized data were plotted to generate saturation binding curves for each combination of radiolabeled ligand and transfected BHK cells.

Test [9] shares this target. The test is described as follows: saturation radioligand binding on BHK hIL-17RC cells, experiment 2; high affinity site of two-site fit. As to the method:
as §2, §3

Test [10] has the same target. The test is described as follows: saturation radioligand binding on BHK hIL-17RC cells, experiment 3; high affinity site of two-site fit. As to the method: as §2, §3
Test [11] concerns the target T3, human IL-17RCx4, on transfected 293T …. Description: FACS, biotinylated cytokine on transiently transfected 293T cells; (+) = significant increase in fluorescence.

We go through 3 molecules from patent US20070196371A1 (ZymoGenetics, published 2007).

Usually Kd stands for the free concentration of one partner at which half of the binding sites on the other are occupied at equilibrium, for simple one-to-one binding.

B1: mouse IL-17A (ligand)
chain: AAIIPQSSACPNTEAKDFLQNVKVNLKVFNSLGAKVSSRRPSDYLNRSTSPWTLHRNEDPDRYPSVIWEAQCRHQRCVNAEGKLDHHMNSVLIQQEILVLKREPESCPFTFRVEKMLVGVGCTCVASIVRQAA
modifications: biotinylated in Example 31
notes: also called murine IL-17A; mIL-17A
Consider B1, for which, in test [1], the “EC50, ap1/nfkb luciferase in nih3t3/kz142.8/hcytor14x1 pool” value is around 4 ng/mL. The binding result in test [2], in test [3] and in test [4] was “no binding” each time.

B2: human IL-17F (ligand)
chain: RKIPKVGHTFFQKPESCPPVPGGSMKLDIGIINENQRVSMSRNIESRSTSPWNYTVTWDPNRYPSEVVQAQCRNLGCINAQGKEDISMNSVPIQQETLVVRRKHQGCSVSFQLEKVLVTVGCTCVTPVIHHVQ
modifications: biotinylated (flow cytometry) or 125I-radiolabeled by the iodobead method (radioligand assays); unlabeled as cold competitor; expressed from cDNA in COS cells in the secretion trap
notes: also called huIL-17F; hIL-17F
B2: the “EC50, ap1/nfkb luciferase in hIL-17RCX1 recombinant line” value in test [1] came out at 0.61 ng/mL. In addition, in test [1], the “fold more potent EC50 in the recombinant line vs the parental line” value was found to be 17 fold. The “EC50, ap1/nfkb luciferase in hIL-17RA recombinant line” value in test [5] turned out to be 12.4 ng/mL. Besides, in [6], the “fold reduction of 125I IL-17A binding” value is around 7 fold. Moreover, in test [6], the “fold reduction of 125I IL-17F binding” value is around 5 fold. The binding result in test [7] is “binds”. Besides, the Kd came out at 50 pM in [8], 60 pM in test [9] and 80 pM in [10].

B3: mouse IL-17F (ligand)
chain: RKNPKAGVPALQKAGNCPPLEDNTVRVDIRIFNQNQGISVPREFQNRSSSPWDYNITRDPHRFPSEIAEAQCRHSGCINAQGQEDSTMNSVAIQQEILVLRREPQGCSNSFRLEKMLLKVGCTCVKPIVHQAA
modifications: biotinylated in Example 31
notes: also called murine IL-17F; MuIL-17F
In the case of B3, the binding result in test [2] is given as “no binding”; in test [11] it was “binds”; in test [4] it was “no binding”.
